Results published in the DeepSol protein solubility set.

Assay: soluble on expression in E. coli; label from the status in PepcDB or PDB records

Soluble on expression in E. coli, soluble:
KDWTQYVNPLMGSQSTFELSTGNTYPAIARPWGMNFWTPQTGKMGDGWQYTYTANKIRGFKQTHQPSPWINDYGQFSIMPIVGQPVFDEEKRASWFAHKGEVATPYYYKVYLAEHDIVTEMTPTERAVLFRFTFPENDHSYVVVDAFDKGSYIKIIPEENKIIGYTTRNSGGVPENFKNYFIIEFDKPFTYKATVENGNLQENVAEQTTDHAGAIIGFKTRKGEQVNARIASSFISFEQAAANMNELGKDNIEQLAQKGKDAWNQVLGKIEVEGGNLDQYRTFYSCLYRSLLFPRKFYELDANGQPIHYSPYNGQVLPGYMFTDTGFWDTFRCLFPLLNLMYPSVNKEMQEGLINTYLESGFFPEWASPGHRGCMVGNNSASILVDAYMKGVKVDDIKTLYEGLIHGTENVHPEVSSTGRLGYEYYNKLGYVPYDVKINENAARTLEYAYDDWCIYRLAKELKRPKKEISLFAKRAMNYKNLFDKESKLMRGRNEDGTFQSPFSPLKWGDAFTEGNSWHYTWSVFHDPQGLIDLMGGKEMFVTMMDSVFAVPPIFDDSYYGQVIHEIREMTVMNMGNYAHGNQPIQHMIYLYDYAGQPWKAQYWLRQVMDRMYTPGPDGYCGDEDNGQTSAWYVFSALGFYPVCPGTDEYVMGTPLFKKATLHFENGNSLVIDAPNNSTENFYIDSMSFNGADHTKNYLRHEDLFKGGTIKVDMSNRPNLNRGTKEEDMPYSFSKELEHHHHHH, MRGSHHHHHHGMASNEFPVVLVINCGSSSIKFSVLDVATCDVLMAGIADGMNTENAFLSINGDKPINLAHSNYEDALKAIAFELEKRDLTDSVALIGHRIAHGGELFTQSVIITDEIIDNIRRVSPLAPLHNYANLSGIDAARHLFPAVRQVAVFDTSFHQTLAPEAYLYGLPWEYFSSLGVRRYGFHGTSHRYVSRRAYELLDLDEKDSGLIVAHLGNGASICAVRNGQSVDTSMGMTPLEGLMMGTRSGDVDFGAMAWIAKETGQTLSDLERVVNKESGLLGISGLSSDLRVLEKAWHEGHERARLAIKTFVHRIARHIAGHAASLHRLDGIIFTGGIGENSVLIRQLVIEHLGVLGLTLDVEMNKQPNSHGERIISANPSQVICAVIPTNEEKMIALDAIHLGNVKAPVEFA, MPREFKSFGSTEKSLLSKGHGEPSYSEIYAEPENFLEIEVHNPKTHIPNGMDSKGMFTDYEIICRTNLPSFHKRVSKVRRRYSDFEFFRKCLIKEISMLNHPKVMVPHLPGKILLSNRFSNEVIEERRQGLNTWMQSVAGHPLLQSGSKVLVRFIEAEKFVG, MRKKEDKYDFRALGLAIKEARKKQGLTREQVGAMIEIDPRYLTNIENKGQHPSLQVLYDLVSLLNVSVDEFFLPASSQVKSTKRRQLENKIDNFTDADLVIMESVADGIVKSKEVGEMAGENLYFQ, LALVATGNDTTTKPDLYYLKNSEAINSLALLPPPPAVGSIAFLNDQAMYEQGRLLRNTERGKLAAEDANLSSGGVANAFSGAFGSPITEKDAPALHKLLTNMIEDAGDLATRSAKDHYMRIRPFAFYGVSTCNTTEQDKLSKNGSYPSGHTSIGWATALVLAEINPQRQNEILKRGYELGQSRVICGYHWQSDVDAARVVGSAVVATLHTNPAFQQQLQKAKAEFAQHQKK, MSLGDQTLVRELSPLKNKGESTFRMGLYIRDSAAGVGTLTFYDPVSKKYGALGHVISDVDTKKPIVVHDGQIIRSSVTSIDKGSNGDPGEKLASFSNQRNTLGTIEKNSSFGIFGTLTEKDLKNHVSDEALPVTLSNHVKEGPAKILTVVEGEKVEEFDIEIVSSVPQKQPATKGLVIKVTDPKLLNTTGGIVQGMSGSPIIQDGKLVGAVTHVFVNDPTSGYGCHISWMLEEAGITFDQSKAKASEGHHHHHH, MAHHHHHHMAAAPSATAPKHNYTLGTNASQLELYKYLKTVPPIPELRQAVTIKKYEEASVDDTLYPLIDEHQIIMVVGAFFGDEGKGKTVDAVARHPACTCVARVNSGENAGHTVFDDIGRKYVFNLAPSSLLTPNTRNYVSSECVMDPISFMEREIGQFIKSNMPYKDKLFVGNVFVVTPYHKLLDLLGSAPNSSTLKGMSPIHASKVTKRGIRLDHIFNDEGVLRARLAKDMDTYYGLLKVKGLTDKDVVRRCQEENADGVERVPGYVVDFARAENKIDYLVKLYTERVKNNKDFPRRCDVTHELRAALARGEKLLLEGPQSYWLSNAREKFWESTTSADTTAGGLLASAQFNFQRYKVLVINVHKAPGSSRVGIGANPSSFVPQDYYSAQDIKTLEALPKGGCVDFDKIQNFFYTKAFNTESKTFNGIYEPLEYEDATGKYNIGVAMSIASARHHGECGAVTKKPRVCGFFDCVLHFEVNAVQGPYLSISAVDRGDDYDRIGITIAYVYYDVGNKMVDANGRVYKNGDIIKAGDPVPCEMALYHCYPIVKVINGWKGAPIAASKRRPNEPLPKGVCEFIANVEFFTGAKVISIGNGPRGSDIIYLKQ

Soluble on expression in E. coli, not soluble:
MGSDKIHHHHHHMDEYNFIVEKLQELGLTKREAEVYLAILMKNGATVKDLLETLDVHQPQLYNIIQSLIRKGFIRASAGRPRVYTANDITALIDVQKMKLDSLKRILQEELGKIRENEGEEPYISYVRSLEGVLASAIETINSAEVEIRAELPYQIYKELSPYFVSALRRGINLYLLVYPTTKSFIELADFKNQIKVKTSELGNFLLIISDLHRAVYSKRRFFTIHKLPISENEVYGYIIHEKDLLLRLLNIHNNLWVKAKEIIGWIPGPEVYPKTFIDFSMALNELEALLRLGYTPIVRVLGRDVKSEYPIEVSGRVRAVNRIGIVSNFILESNEGTFTVGGFDAEIEDIEAQRVIIEKVEREGGKKP, YNSLSFLMRHDMIAGFHWFGPWGRDTFISMPGVLLVSGRYNEARRVLEHYAERIQDGMIPNTQDVEALRFSADTSLWFIYAVQKYLEYAGDDDFARQMLVPIKSIITAYIKGNSMFHLDDDLVTLTGSPLTWMDAMVSGKPVTPRIGKPIEINALWYNALSFYSRTAHDITGEDTEMFSKLARRIKQKFRAKFIKGDAVLDVSDPDDMKFRPNFLIPYFLPYPLLNDRKFVDLAWEKLVTPYGLRTLSPDDPDYVPTYSGPQPERDMAYHNGTVWPWLAGIFITAAVKTGYDKHALLEKFAPLFSMSRIPEIFDGSGTGIPKGCIMQAWSHGEIARAYFEDLRGGRS, MNGKQRMVEQSKQWLSEALIELMKTKDYQDISITEIAQKAELSRKTFYHSFKNKEAVINYLCDQLFDQYFQKLVKQEPQIGEAMLNTTFDIFLNFWWQQRSIIRLLIQQGLFDHMNEIWQKKAVPRYNQFAAPWHVKGTPKQVAYVMAFQLGGFTNILRLWLGQDSPEAPEKIKDLMLLAARQLADSLNPQKN, MGSDKIHHHHHHMKIGAVLTREQVISARYVHHGLLTPFPDPLVAAQRLAGVQAQILPAAGLALWNRVAGFSADQLEHLLYHERSLVRLWGQRGTLHLYAMTDWPLVYGMQAGQATYWEQEAQRDGWAVDEYEAFIARVGDLLYEHETLGRSDLRRLLPAIDQRHLSGWGGVFAILTRRGLACHAAPRGGEARMTHRLRWRPDLVWEPPDTDTANAEMLRRYLAVFGPVRLVDMTCWRGRTQAEMKRWLALIGEEVVRVSVDGQPAWWLQSYLDRLADLPTPADLPPHLLGRFDPLLLGTRDKSWLIDADVYNRVWRPAGHIEATMLVHGRIAGTWRYDWRGSSIVVTLRPFKPLPPSERIRIESLAAGVAEHFAAPLGDCRWEAVA, MEEGYRLKFIFIGNQNNNIKNKNFSNPHNILFDSKKDIILTQDLCEEFLNLNINKQDHAIELLKKELSPLLFEDSLSYLKEEFINEKLEFNISNLASRYTANNDVDTINNKIIEGISITNNFKYTNISYLKELKGYIENDILDKMKSKYAKNIYLNFKKIFSNLEQSVNNYLELEEEFEEKKKYLSEIYELIDEINIDPYIFLTEHNECNIYKISENEKLELQTYMSKIEKVLLKYQTYLKETCKECLFYPYLLVQGEAGIGKSHLLAHLSKKLRDENHIIYLFLGQFFTKNEDPWHQILNDLEVTNSVDNFLRSISNKAKETKKRAFIIIDALNEGEGKRLWGNYFQSFINHIKKYSNIALIFSIRTPFEDVILPKNAIQDNNIVVFQHEGFSKEENYNPIVSFCDFYGLELPKLPILNPEFNNPLFLKLMCEYCVNKFKEFDQTISVAELFTNVLKTVNINLSKEDKFDFDKNINVVQKVIKGLVELMNDSEFNQLNYEESYTVVNNIAKEYVQKSNRFLEALIDENILIKNTGYKGEMIIYFSYERMGDYFLSEYLLEKYRNVDKRDLVTKLQSDEKVTRYFQKEDDLSYNRGLINELFIKLANEFNIELFEVFPQFKNNYNMIYSFINSLVWRKDGSISKHTKCYISDNVIPYDAFRNNFLDVLLIKMPQKNHPLNIWALHKLLKQCNLGKRDFLWTQYISINNEKVFEIINWLFSNYKKLDEETAEKYMIFLTWIFSATNNKLRDLGTKSLVKLFKTFPTKIIGLLKLFENNNDPYIVERLYASVLGATLRIDICEIHIEIANYIYEEIFDKEMVYPHILMRDYARQTIEYISLSKDISNINLEKIRPPYKSNWYKKEYSNLNIDDYIKSLKNKLDSHLHFSIDKIKNSMTTEYGRGTGAYGDFGRYVFGYAVRNWVKGFKSDQDLSNIALMRIFEMGYDAKLHGEFDMWVNRYDNFNNSIERISKKYQWIAYYEILAKLVDKFPDVQYSGLWDDYIRDIDPTLLLLEIDK, MSLVQSINTKVDLTIDATAYTGLTDYGKIMIGDKGFEFFNSRDVRKFVQIPWEEVDQVIVSVMLKGKWIPRYAIKTKRNGTYTFASKRPKEVLRKIRVYVDPANMVSSLSFFDVMKRSFRSIFSKKKNKNKEGHHHHHH, GPGSMTTGQQQSIEGLRNELQQLEDSLMVREEALQRKRQQSERLNNELVDAYLSTTSQEESRASANEAYRTASRAKQVLENSETQSNESMWSNRDDYVSQLMAADEERKGVEADIGEVSSRIKELREDKVDAQKRLTVARLMSMLDDLQSLLKKKVYGPSGSEETRAQELLKTVQELSRERERTIHLLSKKEREMASLIDLKQRRIEELRKEFTRNVSMYADSNKRELLNVAQRIQGERHQLLEEMERLEEANRKITDVLMDTKYTTESAIKDRDTALSAVETMGVSTNPERECLQLRERIQKANAERRMYVLKMEEVQSSIDEDTVMYNTRMSKLRKEILFYQDETVRFEKENKDLKHLCDTLAGSLDGSH, MKRIGYARTTIIEDDLKNQLTTLQSFGCDDIFQETFDPQAEISVLDEVEKLLSAGDTLIVCKLHHLGKTTRQLTDFMKMLKEKQVDFVSISEGIDTHLPTGEAYFQLMESLSAMECALIKERTLVGLHKARENGKVGGRPKIDGRTVRKIRALYYENKETIQFISNKCGVSVGTCYKYINLPETDVERLYS, MTMKCFLVILPLLVLYWIVSNRKRSGPLTNPHYKECLRKEWYTSPNVSSTEDFGSSYQISFADVQKTFKWLYLPEIDDPEIILTVMTRVDALARRNVLRKTWMTQRNRIKSIFVIGLGGDVDQKTKELVMSEAALYGDMVVTNIEDSFSKVAFKMLSMLLYGFSKVPSAKFIGKVDDDVLFYPNVLLSYMDNNTDTIHPQGSRMYGHITETRFITAGIPTGAECCEKFDSDSKCANYVTFLGGSFLMFTRQAVEGVLMASKHRKFHRIDDTMVTGYLADDVGAQRVNMTMMFMGYEPTKEPILFSSHIPLKDHEYLEQYRIQMADFKEQRLFTKYIGE, MGHHHHHHSHMLYVRCGTVGSRMFLVYVSYLINTTIEEKEIVCKCHKDETVTIETVFPFDVAVKFVSTKFEHLERVYADIPFLLMTDLLSASPWALTIVSSELQLAPSMTTVDQLESQVDNVILQTGESASECFCLQCPSLGNIEGGVATGHYIISWKRTSAMENIPIITTVITLPHVIVESIPLHVNADLPSFGRVRESLPVKYHLQNKTDLVQDVEISVEPSDAFMFSGLKQIRLRILPGTEQEMLYNFYPLMAGYQQLPSLNINLLRFPNFTNQLLRRFIPTSIFVKPQGRLMDDTSIAAA
